The test has as its target huFcγRIIa-131H (His-tagged, soluble, captured for SPR) (human) (UniProt P12318). Nature of the test: SPR, His-tagged FcγR captured by anti-His antibody, antibody injected. (SPR reads the build-up and loss of mass on a sensor chip optically.)

From patent US20220177580A1 come the findings set out here.

huFcγRIIa-131H (His-tagged, soluble, captured for SPR) (human), sequence (P12318 34-217 limits assumed): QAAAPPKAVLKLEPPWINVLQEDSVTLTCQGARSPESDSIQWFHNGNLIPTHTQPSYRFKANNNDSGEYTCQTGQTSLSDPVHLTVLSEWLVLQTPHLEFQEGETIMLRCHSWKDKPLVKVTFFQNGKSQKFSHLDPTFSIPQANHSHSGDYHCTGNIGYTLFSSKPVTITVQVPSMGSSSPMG

For huIgG2 control (antibody), the Kd is 25 µM.

As usually defined, the Kd is a measure of binding affinity in units of concentration. A higher Kd goes with lower affinity.
